Legend:
[1] = substrate: C[C@H](O)[C@@H](O)[C@@H](O)[C@H](O)C(=O)O; assay: coupled enzyme dehydration assay; assay type: biochemical, Homo sapiens
purified protein [2] = substrate: O=C(O)[C@@H](O)[C@H](O)[C@H](O)CO; assay: purified protein
purified protein [3] = substrate: O=C(O)[C@@H](O)[C@H](O)[C@H](O)[C@@H](O)CO; assay: purified protein
purified protein [4] = substrate: O=C(O)[C@H](O)C(O)[C@@H](O)C(=O)O; assay: purified protein
purified protein [5] = substrate: O=C(O)[C@H](O)[C@H](O)[C@H](O)CO; assay: purified protein

B1: rTSγ (HsrTSγ) (Homo sapiens) (protein)
chain: MVRGRISRLSVRDVRFPTSLGGHGADAMHTDPDYSAAYVVIETDAEDGIKGCGITFTLGKGTEVVVCAVNALAHHVLNKDLKDIVGDFRGFYRQLTSDGQLRWIGPEKGVVHLATAAVLNAVWDLWAKQEGKPVWKLLVDMDPRMLVSCIDFRYITDVLTEEDALEILQKGQIGKKEREKQMLAQGYPAYTTSCAWLGYSDDTLKQLCAQALKDGWTRFKVKVGADLQDDMRRCQIIRDMIGPEKTLMMDANQRWDVPEAVEWMSKLAKFKPLWIEEPTSPDDILGHATISKALVPLGIGIATGEQCHNRVIFKQLLQAKALQFLQIDSCRLGSVNENLSVLLMAKKFEIPVCPHAGGVGLCELVQHLIIFDYISVSASLENRVCEYVDHLHEHFKYPVMIQRASYMPPKDPGYSTEMKEESVKKHQYPDGEVWKKLLPA
kcat [1]: 0.5 ± 0.006 s⁻¹
kcat/Km [1]: 2500 M⁻¹ s⁻¹
kcat (purified protein [2]): 0.04 ± 0.002 s⁻¹
kcat/Km (purified protein [2]): 20 M⁻¹ s⁻¹
kcat (purified protein [3]): 0.3 ± 0.01 s⁻¹
kcat/Km (purified protein [3]): 100 M⁻¹ s⁻¹
kcat (purified protein [4]): 0.3 ± 0.004 s⁻¹
kcat/Km (purified protein [4]): 75 M⁻¹ s⁻¹
kcat (purified protein [5]): 0.002 ± 0.001 s⁻¹
kcat/Km (purified protein [5]): 5 M⁻¹ s⁻¹
